Data published in patent publication US11793905B2, “Dressing” (University of Birmingham, priority 2015, dated 2023).

Tested on: MFs
Assay: Sirius red assay of collagen deposition from MFs under decorin-containing gellan membranes
Type: cell-based
Details: MFs with TGF-β1 added to produce excess collagen; 12 day period; Sirius red dye read at 550 nm; compared to non-treated samples
Method: FIG. 4—MFs were cultured in 6-well plates and left to attach overnight. After overnight attachment TGF-β1 was added to the cells to produces excess collagen. Decorin containing membranes were placed on top of the cultures and collagen production was observed using the Sirius Red assay over time.
FIG. 5: For quantifying the amount of Sirius red dye bound to collagen in the cultures the Sirius red was dissolved with 0.1N sodium hydroxide and left on a shaker for 30 min at room temperature. The dissolved dye was measured colourimetrically using a plate reader at 550 nm

B1: decorin (protein, UniProt P07585 31-359, looked up)
Decorin: DEASGIGPEVPDDRDFEPSLGPVCPFRCQCHLRVVQCSDLGLDKVPKDLPPDTTLLDLQNNKITEIKDGDFKNLKNLHALILVNNKISKVSPGAFTPLVKLERLYLSKNQLKELPEKMPKTLQELRAHENEITKVRKVTFNGLNQMIVIELGTNPLKSSGIENGAFQGMKKLSYIRIADTNITSIPQGLPPSLTELHLDGNKISRVDAASLKGLNNLAKLGLSFNSISAVDNGSLANTPHLRELHLDNNKLTRVPGGLAEHKYIQVVYLHNNNISVVGSSDFCPPGHNTKKASYSGVSLFSNPVQYWEIQPSTFRCVYVRSAIQLGNYK
notes: secreted 45 kDA proteoglycan with a core protein comprising primarily leucine-rich repeats; antifibrotic agent
amount of collagen deposited: significantly reduces the amount of collagen deposited
